Test results from publication PMC11331971 (Nature, 2023).

B1: HKU1B receptor binding domain (residues 323-607) (domain or fragment)
chain: NLPDCDIDNWLNNVSVPSPLNWERRIFSNCNFNLSTLLRLVHVDSFSCNNLDKSKIFGSCFNSITVDKFAIPNRRRDDLQLGSSGFLQSSNYKIDISSSSCQLYYSLPLVNVTINNFNPSSWNRRYGFGSFNLSSYDVVYSDHCFSVNSDFCPCADPSVVNSCAKSKPPSAICPAGTKYRHCDLDTTLYVKNWCRCSCLPDPISTYSPNTCPQKKVVVGIGEHCPGLGINEEKCGTQLNHSSCFCSPDAFLGWSFDSCISNNRCNIFSNFIFNGINSGTTCSNDL
modifications: biotinylated with the BirA biotin-protein ligase kit for the BLI experiment with nanobodies only
B2: HKU1B receptor binding domain with the R517A mutation (domain or fragment)
chain: NLPDCDIDNWLNNVSVPSPLNWERRIFSNCNFNLSTLLRLVHVDSFSCNNLDKSKIFGSCFNSITVDKFAIPNRRRDDLQLGSSGFLQSSNYKIDISSSSCQLYYSLPLVNVTINNFNPSSWNRRYGFGSFNLSSYDVVYSDHCFSVNSDFCPCADPSVVNSCAKSKPPSAICPAGTKYRHCDLDTTLYVKNWCACSCLPDPISTYSPNTCPQKKVVVGIGEHCPGLGINEEKCGTQLNHSSCFCSPDAFLGWSFDSCISNNRCNIFSNFIFNGINSGTTCSNDL
B3: HKU1A receptor binding domain (residues 323-609) (domain or fragment)
chain: DLPDCDIDKWLNNFNVPSPLNWERKIFSNCNFNLSTLLRLVHTDSFSCNNFDESKIYGSCFKSIVLDKFAIPNSRRSDLQLGSSGFLQSSNYKIDTTSSSCQLYYSLPAINVTINNYNPSSWNRRYGFNNFNLSSHSVVYSRYCFSVNNTFCPCAKPSFASSCKSHKPPSASCPIGTNYRSCESTTVLDHTDWCRCSCLPDPITAYDPRSCSQKKSLVGVGEHCAGFGVDEEKCGVLDGSYNVSCLCSTDAFLGWSYDTCVSNNRCNIFSNFILNGINSGTTCSNDL
B4: anti-TMPRSS2 nanobody VHH-C11 (VHH)
VHH: QVQLVESGGGLVQPGGSLRLSCAASGFTLDYYDIYWFRQAPGKEREGVSSITTSGGRTNYADSVKGRFTISRDNAKNTVYLQMNSLKPEDTAVYYCAAKVGGRRNWIAPLNGYENALWGKGTLVTVSS
B5: anti-TMPRSS2 nanobody VHH-D01 (VHH)
VHH: EVQLVESGGGLVQPGGPLRLSCASSGSTLEHYDIGWFRQVPGGLREGVSSITASGGRTNYADSVKGRFTISRDNGKNAVYLQMNSLKPEDTAVYYCAGKIGGRRNWVAPLDGFENAYWGQGTQVTVSS
B6: anti-TMPRSS2 nanobody VHH-A01 (VHH)
VHH: QVQLVESGGGLVQPGGSLRLSCVVSGFSLDYYAIGWFRQAPGKEREGVSCIGSSGDKTNYADSVKGRFTISRDNAKNTVYLQMNSLKPEDTAVYYCAAESALYSDCTEEQNPMLYDYWGQGTQVTVSS
B7: anti-TMPRSS2 nanobody VHH-A07 (VHH)
VHH: QVQLVESGGGLVQPGGSLRLSCTSSGSPLEHYDIIWFRQAPGREREGVSSITTSGGHTNYADSVKDRFTISRDNAKNVVYLQMNSLKPEDTAVYYCAGRVGGRRNWIVPLDGYDNAYWGQGTQVTVSS
B8: anti-TMPRSS2 nanobody VHH-F05 (VHH)
VHH: EVQLVESGGGLVQPGGSLRLSCAASGFTLDYYAIGWFRQAPGKEREGVSCISSSGDSIKYVDSVKGRFTISRDNAKNTVYLQMNSLKPEDTAVYQCAADALGSGCLTGNYDYWGQGTRVTVSS
B9: TMPRSS2 (transmembrane-serine protease 2), wild type, on transfected 293T cells (receptor)
chain: MALNSGSPPAIGPYYENHGYQPENPYPAQPTVVPTVYEVHPAQYYPSPVPQYAPRVLTQASNPVVCTQPKSPSGTVCTSKTKKALCITLTLGTFLVGAALAAGLLWKFMGSKCSNSGIECDSSGTCINPSNWCDGVSHCPGGEDENRCVRLYGPNFILQVYSSQRKSWHPVCQDDWNENYGRAACRDMGYKNNFYSSQGIVDDSGSTSFMKLNTSAGNVDIYKKLYHSDACSSKAVVSLRCIACGVNLNSSRQSRIVGGESALPGAWPWQVSLHVQNVHVCGGSIITPEWIVTAAHCVEKPLNNPWHWTAFAGILRQSFMFYGAGYQVEKVISHPNYDSKTKNNDIALMKLQKPLTFNDLVKPVCLPNPGMMLQPEQLCWISGWGATEEKGKTSEVLNAAKVLLIETQRCNSRYVYDNLITPAMICAGFLQGNVDSCQGDSGGPLVTSKNNIWWLIGDTSWGSGCAKAYRPGVYGNVMVFTDWIYRQMRADG

These binders were tested against T1, S441A TMPRSS2 ectodomain, soluble (human, UniProt O15393 106-492, S441A) (assay: BLI).
B1 gave a Kd of 137 ± 20.8 nM.
Binder B2 has a Kd of 376 ± 96.4 nM.
B3 showed a Kd of 334 ± 66.2 nM.

Target: T1, S441A TMPRSS2 ectodomain, soluble
Assay: BLI
Remark: another data set of the same source
In the case of B1, the Kd is reported as 131 nM.

The binders below were run against S441A TMPRSS2 ectodomain, soluble (human, UniProt O15393, S441A) (assay: BLI).
Sequence of S441A TMPRSS2 ectodomain, soluble (human, UniProt O15393, S441A) (O15393 106-492 S441A): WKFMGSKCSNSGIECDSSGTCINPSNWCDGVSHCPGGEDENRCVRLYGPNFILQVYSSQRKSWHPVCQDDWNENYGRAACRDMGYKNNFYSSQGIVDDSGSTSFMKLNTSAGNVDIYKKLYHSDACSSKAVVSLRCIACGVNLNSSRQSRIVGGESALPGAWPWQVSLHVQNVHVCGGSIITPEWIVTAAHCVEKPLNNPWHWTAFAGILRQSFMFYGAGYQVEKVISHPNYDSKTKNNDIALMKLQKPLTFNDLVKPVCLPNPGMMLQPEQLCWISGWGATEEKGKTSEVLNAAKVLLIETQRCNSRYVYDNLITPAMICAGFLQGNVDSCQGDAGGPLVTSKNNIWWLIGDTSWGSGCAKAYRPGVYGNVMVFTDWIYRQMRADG
For B4, the Kd was 32.5 nM and the koff was 0.00023 s⁻¹.
In the case of B5, the Kd is reported as 6 nM and the koff is reported as 0.00048 s⁻¹.
In the case of B6, the Kd is reported as 0.78 nM and the koff is reported as 5.1e-05 s⁻¹.
B7 was tested, and the Kd was 13.3 nM and the koff was 0.0011 s⁻¹.
In the case of B8, the Kd is reported as 2.6 nM and the koff is reported as 0.00019 s⁻¹.

The binders below were run against dimeric anti-TMPRSS2 VHH-A01-Fc (alpaca (Lama pacos)) (assay: flow cytometry on cells).
B9: binds.
